From US20200230249A1 (UREKA SARL, published 2020)
Numbered stars: 1 amine (or outer) side, 2 acyl side, 3 side chain; on linkers, the order of the positions; unused ones are H or OH. Square brackets hold non-standard residues; d marks the D form. Ends that are not written are not given here. A^u = urea/ureido (oligourea) residue with alanine side chain, C[C@@H](CNC(=O)[*:2])N[*:1]; Au = A^u, ureido (oligourea) alanine residue, C[C@@H](CNC(=O)[*:2])N[*:1]; D^uα = urea/ureido residue with aspartic acid side chain; E^u = urea/ureido residue with glutamic acid side chain; Y^u = urea/ureido residue with tyrosine side chain

T1: mouse GLP-1 receptor endogenously expressed in βTC6 cells (mouse, UniProt O35659 22-463)
T1 sequence (looked up): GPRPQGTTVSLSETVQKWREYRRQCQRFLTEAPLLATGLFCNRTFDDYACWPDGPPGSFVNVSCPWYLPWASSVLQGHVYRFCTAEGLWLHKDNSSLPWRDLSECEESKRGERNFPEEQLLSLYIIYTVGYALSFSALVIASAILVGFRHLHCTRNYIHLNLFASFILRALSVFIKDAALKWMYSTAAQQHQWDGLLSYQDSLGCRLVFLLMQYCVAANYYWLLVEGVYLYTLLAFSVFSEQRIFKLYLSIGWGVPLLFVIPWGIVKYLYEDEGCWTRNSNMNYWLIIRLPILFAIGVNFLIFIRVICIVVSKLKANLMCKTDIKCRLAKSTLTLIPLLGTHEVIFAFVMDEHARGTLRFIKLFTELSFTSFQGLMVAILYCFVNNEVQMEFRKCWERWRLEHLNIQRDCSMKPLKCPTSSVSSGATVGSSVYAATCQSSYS

B1: GG2[A^UA^UA^U]^17-20 (peptide)
peptide: HGEGTFTSDVSSYLEG[A^u][A^u][A^u]EFIAWLVKGRG-NH2
modifications: N-terminus assumed
SMILES: CC[C@H](C)[C@H](NC(=O)[C@H](Cc1ccccc1)NC(=O)[C@H](CCC(=O)O)NC(=O)NC[C@H](C)NC(=O)NC[C@H](C)NC(=O)NC[C@H](C)NC(=O)CNC(=O)[C@H](CCC(=O)O)NC(=O)[C@H](CC(C)C)NC(=O)[C@H](Cc1ccc(O)cc1)NC(=O)[C@H](CO)NC(=O)[C@H](CO)NC(=O)[C@@H](NC(=O)[C@H](CC(=O)O)NC(=O)[C@H](CO)NC(=O)[C@@H](NC(=O)[C@H](Cc1ccccc1)NC(=O)[C@@H](NC(=O)CNC(=O)[C@H](CCC(=O)O)NC(=O)CNC(=O)[C@@H](N)Cc1c[nH]cn1)[C@@H](C)O)[C@@H](C)O)C(C)C)C(=O)N[C@@H](C)C(=O)N[C@@H](Cc1c[nH]c2ccccc12)C(=O)N[C@@H](CC(C)C)C(=O)N[C@H](C(=O)N[C@@H](CCCCN)C(=O)NCC(=O)N[C@@H](CCCNC(=N)N)C(=O)NCC(N)=O)C(C)C
B2: GG2[A^UA^UA^U]^24-27 (peptide)
peptide: HGEGTFTSDVSSYLEGQAAKEFIXXXKGRG
modifications: ureido (oligourea) residues A^u A^u A^u at positions 24-26 of the hybrid, replacing residues 24-27 of GLP-1-G2; C-terminal amide
B3: GG2[F^UαI^UA^U]^22-25 (peptide)
peptide: HGEGTFTSDVSSYLEGQAAKEXXXLVKGRG
modifications: ureido (oligourea) residues F^uα I^u A^u at positions 22-24 of the hybrid, replacing residues 22-25 of GLP-1-G2; C-terminal amide
B4: GG2[A^UA^UA^U]^23-26 (peptide)
peptide: HGEGTFTSDVSSYLEGQAAKEF[A^u][A^u][A^u]VKGRG-NH2
modifications: N-terminus assumed
SMILES: CC(C)C[C@H](NC(=O)[C@H](Cc1ccc(O)cc1)NC(=O)[C@H](CO)NC(=O)[C@H](CO)NC(=O)[C@@H](NC(=O)[C@H](CC(=O)O)NC(=O)[C@H](CO)NC(=O)[C@@H](NC(=O)[C@H](Cc1ccccc1)NC(=O)[C@@H](NC(=O)CNC(=O)[C@H](CCC(=O)O)NC(=O)CNC(=O)[C@@H](N)Cc1c[nH]cn1)[C@@H](C)O)[C@@H](C)O)C(C)C)C(=O)N[C@@H](CCC(=O)O)C(=O)NCC(=O)N[C@@H](CCC(N)=O)C(=O)N[C@@H](C)C(=O)N[C@@H](C)C(=O)N[C@@H](CCCCN)C(=O)N[C@@H](CCC(=O)O)C(=O)N[C@@H](Cc1ccccc1)C(=O)N[C@@H](C)CNC(=O)N[C@@H](C)CNC(=O)N[C@@H](C)CNC(=O)N[C@H](C(=O)N[C@@H](CCCCN)C(=O)NCC(=O)N[C@@H](CCCNC(=N)N)C(=O)NCC(N)=O)C(C)C
B5: GG2[A^UA^UA^U]^19-22 (peptide)
peptide: HGEGTFTSDVSSYLEGQA[A^u][A^u][A^u]IAWLVKGRG-NH2
modifications: N-terminus assumed
SMILES: CC[C@H](C)[C@H](NC(=O)NC[C@H](C)NC(=O)NC[C@H](C)NC(=O)NC[C@H](C)NC(=O)[C@H](C)NC(=O)[C@H](CCC(N)=O)NC(=O)CNC(=O)[C@H](CCC(=O)O)NC(=O)[C@H](CC(C)C)NC(=O)[C@H](Cc1ccc(O)cc1)NC(=O)[C@H](CO)NC(=O)[C@H](CO)NC(=O)[C@@H](NC(=O)[C@H](CC(=O)O)NC(=O)[C@H](CO)NC(=O)[C@@H](NC(=O)[C@H](Cc1ccccc1)NC(=O)[C@@H](NC(=O)CNC(=O)[C@H](CCC(=O)O)NC(=O)CNC(=O)[C@@H](N)Cc1c[nH]cn1)[C@@H](C)O)[C@@H](C)O)C(C)C)C(=O)N[C@@H](C)C(=O)N[C@@H](Cc1c[nH]c2ccccc12)C(=O)N[C@@H](CC(C)C)C(=O)N[C@H](C(=O)N[C@@H](CCCCN)C(=O)NCC(=O)N[C@@H](CCCNC(=N)N)C(=O)NCC(N)=O)C(C)C

Target: T1, mouse GLP-1 receptor endogenously …
Assay: cell-based or functional assay

Binder | EC50 (nM), cAMP production functional assay [nM] | Potency (%) compared to GLP-1-G^2, cAMP production [%]
HGEGTFTSDVSSYL[E^u][A^u][A^u]AKEFIAWLVKGRG-NH2 [GG2[E^UA^UA^U]^15-18] | 1.9 | 13
B1 | 1600 | 0.01
B2 | > 10000 | < 0.01
HGEGTFTS[D^uα][A^u][A^u]YLEGQAAKEFIAWLVKGRG-NH2 [GG2[D^UαA^UA^U]^9-12] | 13 | 2
B3 | 62 | 0.4
HGEGTFTSDVSS[Au][Au][Au]QAAKEFIAWLVKGRG-NH2 (also: oligourea (urea) backbone at A^u units) [GG2[A^UA^UA^U]^13-16] | > 10000 | < 0.01
H-HGEGTFTSD[Au][Au][Au]LEGQAAKEFIAWLVKGRG-NH2 (also: oligourea (urea) backbone at A^u units) [GG2[A^UA^UA^U]^10-13] | 650 | 0.04
B4 | 3930 | 0.01
H-HGEGTFTSDVSSYL[Au][Au][Au]AKEFIAWLVKGRG-NH2 (also: oligourea (urea) backbone at A^u units) [GG2[A^UA^UA^U]^15-18] | 123 | 0.2
HGEGTFTSDVSSY[Y^u][E^u][A^u][A^u][A^u][A^u]FIAWLVKGRG-NH2 [GG2[Y^uE^uA^uA^uA^uA^u]^14-21] | 3.4 | 7
HGEGTFTSDVSSY[Y^u][E^u][A^u]AAKEFIAWLVKGRG-NH2 [GG2[Y^UE^UA^U]^14-17] | 0.18 | 135
B5 | > 10000 | < 0.01
HGEGTFTSDV[Au][Au][Au]EGQAAKEFIAWLVKGRG-NH2 (also: oligourea (urea) backbone at A^u units) [GG2[A^UA^UA^U]^11-14] | 97 | 0.2
HGEGTFTSDVSSYLEGQ[A^u][A^u][A^u]FIAWLVKGRG-NH2 [GG2[A^UA^UA^U]^18-21] | 4.1 | 6
HGEGTFTSDV[A^u][Y^u][A^u]EGQAAKEFIAWLVKGRG-NH2 [GG2[A^UY^UA^U]^11-14] | 1.6 | 15
H-HGEGTFTSDVSSYLE[Au][Au][Au]KEFIAWLVKGRG-NH2 (also: oligourea (urea) backbone at A^u units) [GG2[A^UA^UA^U]^16-19] | 240 | 0.1
H-HGEGTFTSDVS[Au][Au][Au]GQAAKEFIAWLVKGRG-NH2 (also: oligourea (urea) backbone at A^u units) [GG2[A^UA^UA^U]^12-15] | > 10000 | < 0.01
H-HGEGTFTSDVSSYLEGQAAKEFIAWLVKGRG-NH2 [GLP-1-G^2 (GG2)] | 0.24 | 100
H-HGEGTFTSDVSSY[Au][Au][Au]AAKEFIAWLVKGRG-NH2 (also: oligourea (urea) backbone at A^u units) [GG2[A^UA^UA^U]^14-17] | 353 | 0.07
